{"source": "the supplement of paper PMC9170038", "data": [{"test_system": "MS2 coat protein", "test": "apparent KD of MS2 coat protein; higher = weaker reporter binding", "conditions": "Eterna round: R107; input ligand: theophylline 2 mM", "procedure,_shortened": "(§1)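 Designed RNA switches were transcribed on-chip from Illumina sequencing clusters. They were then titrated with SNAP-549-labelled MS2 coat protein (twofold steps, 0.7 or 1.5 nM to 3 µM; 0.8–1.5 h to 10–20 min per step) in 100 mM Tris-HCl pH 7.5, 80 mM KCl, 4 mM MgCl2, without or with constant ligand. Apparent KD is the per-design median of normalised cluster binding-curve fits.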", "units": {"apparent KD of MS2 coat protein": "nM"}, "values": [{"sequence": "ACAUGACAACAUGAGGAUCACCCAUGUCAUCGAGGACCGGUACGGCCGCCACUCGGUCAAUAUGAUACUUGUCAUGAACAUGAGG [Exclusion Tryptophan A 2]", "apparent KD of MS2 coat protein": 21.3}, {"sequence": "CCCAGUUAUAACAAAGGAAUUAUACUCGAAGGAGCGUCAUAGUAGGCAGGUAGGUCGCGAGACAUGAGGAUCACCCAUGUAGAGA [k,lmullin]", "apparent KD of MS2 coat protein": 49.4}, {"sequence": "GCUGCCAUACGAAGGAGCGCUGUUGUAGUGAGGCGAACAUGAGGAUCACCCAUGUGGCAGCAGCAGGUAGGUCGCGUAUGGCAGC [EAB #13]", "apparent KD of MS2 coat protein": 33.9}, {"sequence": "UCGUUAUGGUCGGCCGCCACUCGCGGAGAGCAUAGCUCAAACAUGAGGAUCACCCAUGUAUCAUGGAGGACCGGGACCAUAACGU [Rxmullin variation #StaticStem]", "apparent KD of MS2 coat protein": 42.7}, {"sequence": "UUACAUGAGGAUCACCCAUGUCAUACAGAAGGAGCGUCACAUAAGACAGGUAGGUCGCUGUUAUUUCAUACUGUUAUAUCCUCUA [JR_Nu_ExcArginiA_Sub029]", "apparent KD of MS2 coat protein": 47.1}, {"sequence": "CCUUUGUAGCGAAGGAGCGCGUGACUUAGCUCAUGUAAACAUGAGGAUCACCCAUGUGACACGCAGGUAGGUCGCGCUAUGAAGG [Arg B Ex t3]", "apparent KD of MS2 coat protein": 23.5}, {"sequence": "CUGCCAUGCAGAGAUACCAGUGAGCUCAGAACAUGAGGAUCACCCAUGUACGCCGCCGAUCACCCUUGGCAGCUCUGCAUGGCAG [%*#)(]", "apparent KD of MS2 coat protein": 11.4}]}, {"test_system": "MS2 coat protein", "test": "apparent KD of MS2 coat protein; higher = weaker reporter binding", "conditions": "Eterna round: R107; input ligand: tryptophan 2.4 mM", "procedure,_shortened": "as §1", "units": {"apparent KD of MS2 coat protein": "nM"}, "values": [{"sequence": "ACAUGAGGAUCACCCAUGUAAUAGCGAGAAGGAGCGCGUAAGGACGCAGGUAGGUCGCUCGUGGUCCGGCCGCAAGGCCGGACCA [#1 Same State - Arginine A Attempt #10 (HarryS)]", "apparent KD of MS2 coat protein": 13.2}, {"sequence": "GUCCUAGCGAUCGCUCGCUAGGACGCGGAUACCAGCGAGGUCCAUCGCCCUUGGCAGCCGAACAUGAGGAUCACCCAUGUCGGUA [#1 Same State - Theophylline A Attempt #18 (HarryS)]", "apparent KD of MS2 coat protein": 10.2}, {"sequence": "AGUAGACACGCGGCCGCCACUUGAGGAUCACCCAAGUGGUGUGUACUUGAAAACAAGUGCACAUCAAGGACCGGGCGUGUCUACA [Omei Tryp B SS D v3]", "apparent KD of MS2 coat protein": 8.54}, {"sequence": "GGCUGACAUGAGGAUCACCCAUGUAGUGAUACCAGUAAGAGAAUAUACCCUUGGCAGCACAGGUAACAACUCGUCUCCAAAGUAA [theeternabot_sameState_MS2_Theo_A_49]", "apparent KD of MS2 coat protein": 38.2}, {"sequence": "GGAUAGGACACGGCCGCCACUAGCUAGGAUACUAGCAACAUUUCCUCACUUGAGGAACACCCAAGUAGGACCGGGUGUCCUAUCG", "apparent KD of MS2 coat protein": 740}, {"sequence": "UGCUGACAAGGACAUGGAUGAUCAGCUGAUACCAGCCUGGAAACAGGCCCUUGGCAGCAGCACAUGAGGAUCACCCAUGUAAUAA [(T)'-(M)'-(T1)-(T2)-(M1)-(M2)_Design3(Mismatches)]", "apparent KD of MS2 coat protein": 27.2}, {"sequence": "AAACAUGAGGAUCACCCAUGUUCAAUAGAUACCAGUGAUACGGUGCACCCUUGGCAGCUGUUGCUGAGUGAUGGUUCCCUCGGUA [#24 SameState-TheophyllineA]", "apparent KD of MS2 coat protein": 27.1}, {"sequence": "GGACUAACCUGAAGGAGCGACGCGCAGAAACUGCAAAUUCCUCCACACGAGGAUCACCCGUGUCAGGUAGGUCGCAGGUUAGUCG [ArgBX 28]", "apparent KD of MS2 coat protein": 16.9}, {"sequence": "AUAUGAUCAUGUGAUACCAGAAAUGGUAUUCCUCGCUGGAUUACAUGAGGAUCACCCAUGUUCCCUUGGCAGCAUAUGAUCAUAU [#01 Exclusion-TheophyllineB]", "apparent KD of MS2 coat protein": 20.9}, {"sequence": "AAAACAAUCUGAAGGAGCGUCACAUGAGGAUCACCCAUGUACAUGAGGAUCACCCAUGUGUGACAGGUAGGUCGCAGAAAAUACC [Exclusion Arginine B GF 3]", "apparent KD of MS2 coat protein": 200}, {"sequence": "ACGAUACGACAUGAGGAUCACCCAUGUGAUACCAGCGUGGAAACACGCCCUUGGCAGCACAAAUACUCCAAUAACGUAUCGAAAA [MAT - Exclusion Theophlline A - Mod of Eli - D8]", "apparent KD of MS2 coat protein": 260}, {"sequence": "CGCACAUGAGGAUCACCCAUGUGAGGGCGGCGAGGACCGGUACGGCCGCCACUCGCAAAACAUGAGGAUCACCCAUGUGCCGCCG [SSTA DOUBLE!!! :-D #2]", "apparent KD of MS2 coat protein": 29.2}, {"sequence": "GGACUAACCAGAAGGAGCGGCACGCAGAAACUGCAAUUUCCUCCACACGAGGAUCACCCGUGUCAGGUAGGUCGCUGGUUAGUCG [ArgBX 29]", "apparent KD of MS2 coat protein": 22.6}, {"sequence": "UGGCAAGAGGGAAGGAGCGUCAGCUGAGUCACAUGAGGAUCACCCAUGUAGCACAUGGUGUGACAGGUAGGUCGCCCUCUGCCGU [SS-ArgB11]", "apparent KD of MS2 coat protein": 23.7}, {"sequence": "GGACUAACCAGAAGGAGCGACACGCAGAAACUGCAAUUUCCUCCGCACGAGGAUCACCCGUGUCAGGUAGGUCGCUGGUUAGUCG", "apparent KD of MS2 coat protein": 21.1}, {"sequence": "CAUUUUAGAAAACUAAAAUGAGUGGGUGAACGAGGACCGGUACGGCCGCCACUCGGACAUGAGGAUCACCCAUGUCCAUGUGAAA [AstrosExyTryA#22]", "apparent KD of MS2 coat protein": 37.8}, {"sequence": "ACGUCCCGUUUACUCGUGGGUUAGGUCGAUACCAGUAUUCAAACUUACCCUUGGCAGCGACAUGAGGAUCACCCAUGUGCGAAGA [XTheo A #22]", "apparent KD of MS2 coat protein": 17.5}, {"sequence": "AUAAGGUAUCUGCUAUCCUCAUGAGCAGAUACCAGCUAGGAAACUAGCCCUUGGCAGCUGCAACAUGAGGAUCACCCAUGUAAUA [(T)'-(M)'-(T1)-(T2)-(M1)-(M2)_Design1]", "apparent KD of MS2 coat protein": 256}, {"sequence": "UAACAUGAGGAUCACCCAUGUUUGAAGGAACGAGGACCGGUACGGCCGCCACUCGACGAGUGGAUGAGAAGUGGGCUUGUGUGCU [Same State Trp A GF9]", "apparent KD of MS2 coat protein": 16.5}, {"sequence": "UGGCAAGAGGGAAGGAGCGUCAGCAGAGUCACAUGAGGAUCACCCAUGUAGCACGUGGUGUGACAGGUAGGUCGCCCUCUGCCGU [SS-ArgB12]", "apparent KD of MS2 coat protein": 22.1}, {"sequence": "AAUUUUAACGGAAGGAGCGUCAAUUAAUACAAACAUGAGGAUCACCCAUGUCAAUACAUGAGACAGGUAGGUCGCCGUUAUUUGA [JR_AAArginiB_Sub024]", "apparent KD of MS2 coat protein": 23.3}, {"sequence": "UCAGGAAGAGCGGCCGCCACUGUUUGGCAUGCGGAUGAAGGAACAUGAGGAUCACCCAUGUAGAUUAGGACCGGGCUUGCGGAGA [szeemullin]", "apparent KD of MS2 coat protein": 12.6}, {"sequence": "AGCCAUGGAAACAUGGCGGCGGCAUGAGCGCGAGGACCGGUACGGCCGCCACUCGGGCAACAUGAGGAUCACCCAUGUUCCUCAU [ETA NP+V+V2 #20 +-Same Structure]", "apparent KD of MS2 coat protein": 363}, {"sequence": "GGUUGGUGUAGAGAUAUAUUGAUUACUGAAGGAGCGGGAAAUAACCCAGGUAGGUCGCAGAGAUCCACAUGAGGAUCACCCAUGU [!0.K]", "apparent KD of MS2 coat protein": 29.8}, {"sequence": "GUUAGAUCAAAAGAUUUAACAGUGGGUGAACGAGGACCGGUACGGCCGCCACUCGGACAUGAGGAUCACCCAUGUCCAUGUGAAA [AstrosExyTryA#16]", "apparent KD of MS2 coat protein": 43.5}, {"sequence": "GGAAGCAGGACUGAUACCAGUCCAGCGAAUCAUACGACGCAACAUGAGGAUCACCCAUGUGACCCUUGGCAGCAGACUGCUACCG [Same State Theophylline B GF 27]", "apparent KD of MS2 coat protein": 32.2}, {"sequence": "GGAAAAUAUAGGGAUACCAGAUAUGGCGUUGACAUGAGGAUCACCCAUGUCUUAGCAGUGAUCCCUUGGCAGCCCACACCAUCCG [theeternabot_sameState_MS2_Theo_B_13]", "apparent KD of MS2 coat protein": 64.5}, {"sequence": "CCCAGUUAUAACAAAGGAAUUAUACUCGAAGGAGCGUCAUAGUAGGCAGGUAGGUCGCGAGACAUGAGGAUCACCCAUGUAGAGA [k,lmullin]", "apparent KD of MS2 coat protein": 50}, {"sequence": "GCUGCCAUACGAAGGAGCGCUGUUGUAGUGAGGCGAACAUGAGGAUCACCCAUGUGGCAGCAGCAGGUAGGUCGCGUAUGGCAGC [EAB #13]", "apparent KD of MS2 coat protein": 26}, {"sequence": "GCACCAGGUACGGAUACCAGCUGCCCGAGAUACAUGAGGAUCACCCAUGUGACCUGGUUUAGCCCUUGGCAGCUGUACCUGGUGC [#14 Same State - Theophylline B]", "apparent KD of MS2 coat protein": 14.3}, {"sequence": "UUACAUGAGGAUCACCCAUGUCAUACAGAAGGAGCGUCACAUAAGACAGGUAGGUCGCUGUUAUUUCAUACUGUUAUAUCCUCUA [JR_Nu_ExcArginiA_Sub029]", "apparent KD of MS2 coat protein": 40}, {"sequence": "CCUUUGUAGCGAAGGAGCGCGUGACUUAGCUCAUGUAAACAUGAGGAUCACCCAUGUGACACGCAGGUAGGUCGCGCUAUGAAGG [Arg B Ex t3]", "apparent KD of MS2 coat protein": 21.9}, {"sequence": "CUGCCAUGCAGAGAUACCAGUGAGCUCAGAACAUGAGGAUCACCCAUGUACGCCGCCGAUCACCCUUGGCAGCUCUGCAUGGCAG [%*#)(]", "apparent KD of MS2 coat protein": 11.6}]}]}
